In the DeepSol protein solubility set:

Experiment: soluble on expression in E. coli; label from the status in PepcDB or PDB records

| Sequence | soluble on expression in E. coli |
| --- | --- |
| MTIRFDNVSYTYQKGTPYQHQAIHDVNTEFEQGKYYAIVGQTGSGKSTLIQNINALLKPTTGTVTVDDITITHKTKDKYIRPVRKRIGMVFQFPESQLFEDTVEREMIFGPKNFKMNLDEAKNYAHRLLMDLGFSRDVMSQSPFQMSGGQMRKIAIVSILAMNPDIIVVDEPTAGLDPQSKRQVMRLLKSLQTDENKAIILISHDMNEVARYADEVIVMKEGSIVSQTSPKELFKDKKKLADWHIGLPEIVQLQYDFEQKYQTKLKDIALTEEAFVSLYKEWQHEK | not soluble |
| MPVLVFGAVNVHDGDTVAVVHQEESANATAFLDFLRLLKERHPNRMIALVLDNARIHHARMVKDFLREEGQCFHFLYLPPYSPQLNPIERLWKWLKDTVITNAFHKDRHEILQAVQRLIHYIPKRPEDVLRRLECAV | not soluble |
| TSTMGNLQTAINDKSGTLASQNFLDADEQKRNAYNQAVSAAETILNKQTGPNTAKTAVEQALNNVNNAKHALNGTQNLNNAKQAAITAINGASDLNQKQKDALKAQANGAQRVSNAQDVQHNATELNTA | soluble |
| MGSDKIHHHHHHMLKRIATSLLDIAYDEQGNADGWPVVLLHGFPYDIHAYDAVTPRLTSQGARVITPYLRGYGPTRFLAPTTLRSGQQAALGADLLALLDALQIGQAVLGGYDWGGRAACIVAALYPSRARGLVSVNGYNIQNIAAASQPADPEKEYRMWYQYYLHGERGRAGLTENRREFCRLLWSLWSPTWHFGDDTYARSAAAFDNPDFVDVVVHSYRHRFGLVDGDPQFDDIERRLSAMPPITVPAITLEGDADGVSPPGGRQANSQRFTGRHQNRVVPNAGHNLPQEAPGAFADAVLDINAWAARRSCACGD | not soluble |
| MVVYDCLTDEDFLQKSEHGIGKKAIYYFYGERCPSCESIKPLFDDLCKKYEKTALVYTYPCYNDDQLTGDAFAVNAVPTFVVMNNGEEVTRHVGAEAEKVQELFEKYAV | not soluble |
| MSEQKTIRFIITRQDTADSTPYDEEFEIPYRPNLNVISALMEIRRNPVNVKGEKTTPVTWDMNCLEEVCGACSMVINGKPRQSCTALIDQLEQPIRLKPMKTFPVVRDLQVDRSRMFDSLKKVKAWIPIDGTYDLGPGPRMPEKRRQWAYELSKCMTCGVCLEACPNVNSKSKFMGPAPMSQVRLFNAHPTGAMNKSERLEALMDEGGLADCGNSQNCVQSCPKGIPLTTSIAALNRDTNLQAFRNFFGSDRV | not soluble |
| SPCDTNWRYYGDSCYGFFRHNLTWEESKQYCTDMNATLLKIDNRNIVEYIKARTHLIRWVGLSRQKSNEVWKWEDGSVISENMFEFLEDGKGNMNCAYFHNGKMHPTFCENKHYLMCERKAG | soluble |
| MQFEERLQQLVESDWSLDQSSPNVLVIVLGDTARKYVELGGLKEHVTTNTVAGHVASRERVSVVFLGRVKYLYMYLTRMQAQANGPQYSNVLVYGLWDLTATQDGPQQLRYLALCYGSASVCHLKLNSIQNRLLVACLPGYCDSGTILSDSCIVLHAIS | not soluble |
| MTNIIKIRASVFIPMSWTEAKMDMETGQVIQFEGDSREFTPHAVNTMRSRVEQEVVVDFYKQEVFSYANTGITTEKVISPDGSVNKRTGKASTENIVCTDIVWNSGGVQFKMSASASNPLNVYAPPVDYVLNVCVKKDGSIDVQGEHDGFPCFEFYKQVDFGPFEKIYTHDFRETGDTAAALGGNMDYSFTKRL | soluble |
| MGSDKIHHHHHHMVNNQLELEVKSFLEGQSDFANLPSSEITRLSQVIRKKKIRQGQWIFDQEDEFEYVFLMKEGHVKLFSMNLEGDMTSVSYIVPQMVFPLRGILQGRKYCYNAVAMCTSEVYILPIKEMRKIIVHHYAFTMAFMRRMEHRLHRSEKLLEKTTCSSAAQRVRQVLDYLNEDYAQTHGTVKKVPFKIFLKDLAVLSATTSETAGSVIKAMKEEKKVLYNNKIISFI | not soluble |
| KNCCVYDMATNTLVDAAPYGERSSDYQLATLFHNPGNNNEYLLSQVIEVLDDICQSKEIASETKTKAHWLLSYEPRLPDGDKVKRLLSILEQTLEAFSK | not soluble |
| MKRIAFVFSTAPHGTAAGREGLDALLATSALTDDLAVFFIADGVFQLLPGQKPDAVLARDYIATFKLLGLYDIEQCWVCAASLRERGLDPQTPFVVEATPLEADALRRELANYDVILRF | soluble |
| MNSITCPKCGTECDKLFDSVCRDCFFETFKLIDLPLVLHVKICSSCGAYFHRSRWENIGNLEEVVLKAVENALFIHDEAGDVELYLEPKEITPYIYMVRAEVDAIVRGEPVHAEAATEVRVQRIACDMCSRESGGYFEAIIQIRAAGRFPTEEEKRRCSAIAREAMESMKKKGDRLAFISDYQEQKEGIDLYMGSMNASRQVCRMIISELGGSFAESPTLVGMKDGKNLYRITFAMRLPEFRPGDVIRFRGRIIQIRSSGKKVNGISLEDGSRFLSTPEELKGAEKIANIGDAVLTVLVSIEENAILVLDPETYETVAIKKPMFFNAEAGSEIPVLKTEYGIFALAHTDIPQEKLEHHHHHH | soluble |
| MGSDKIHHHHHHMAISERDIEHIFERLRSGVVPERGLEAFAVGIDKQRTEIHRQFQLAANSEGVFKFLRGGYGCGKTFMSRLAILDAQAQGFATSFVVVSDNDLHFYKFDDVYRKVVQELGTSSCPRGALSDIIDRWIARVEDALIAGGADENSDEFDTLVQQRIEEELASLTGGKAPEDMARVLRAIFTFKQKGEIAEASALLSWLAGSENVAATAKKAAGIKGDIASRDALDYLHGILEIVKAAGYKGLVIVIDEVETVLRMRHDSRGKSLNGIRQICDAADRYRGLLWIYTGTPEFFDTKRGVAGLEPLHDRIQFLTLAGFANPRQPQLELKPFDARRLKEVALKLREIFPTANRTGIVNKVTFEFIERLVAKVTAGFKGDVGVVPRQFLRQFVNILDLASENDEFDPMSAEGFEPTDLNEVELLIREGRTYFDEDPADIQGYAAVEF | not soluble |
| MSAAPLVRAVRWYQRVLSPRKPAPTCRFSPTCSEYAAQALDRHGALKGGWLALWRVLRCNPLVPGGFDPV | soluble |
| MSLTQKPLTVVVGPPSAGKSTWVKAAAKASDLVIDLDILAPTVIGKPMWIADSRERSLVIRERNSLVAEYMRGKTAHPHCFLIDTAGSFKRRKFWLDRGADVVLLDTDKDICRARIRQCSARPESTRAGRLAAVDRWEEGHHHHHH | soluble |
| MLRFGFAAVLLVLAGCSAPMGPEALGPGSYQAAPDPGPFLTPADAQRAFPAVVARVEPVAEAICRERTRGVPCDFQIAVDARPGLDPNAFQTLDDYGRPVIGLTLSLISDARNVDELAFVVGHETAHHILGHIPRQRETALTGAVLAGVLAQMGGADAQTIRSVQEFGANVGARSYSKNFELEADGLGTEIAIRAGYDPVHGAQFFTRLPDPGDTFLGSHPPNAQRIAAVRRAAESIGYVSAWLEHHHHHH | not soluble |
| MYFSWLFLVFFSSRSLTGTPRSIDQRQLRAELSGTGTPTAPADSPALVPNCTQTRGGEDGEGCKQPRVDIKKFRKKKGAHKPQEPETLNFKFRQNLLSLKFLKERKELLVSII | not soluble |
| MGSDKIHHHHHHMNTEHAAYQIADELGGLELLNAHYHKQNFSRHTHEGYTVGVIETGAQRFYRTGGNHVAPKHSIILVNADEVHNGCSATEGGWSYRAMYPVPAQFAGINSERAANSGAPYFPEPVVYDPELAELLRLTFTTLDTSDNRLLRESLVYSSLTQLMARHGKHRPSDNLAAMAKPALALVKSFIDDHPAADISLEELATLAGLSPYYLLKQFQRYYGLPPHAYQIQARVRLAKGKIKQGTRLLDVALDCGFHDQSHLNRHFKKTVGVTPGQFAKEIGRNIIQA | not soluble |
| MDIYVCTVCGYEYDPAFEDLPDDWACPVCGASKDAFEKQ | soluble |
| MAHHHHHHMEREKHENMLMAIARDFNSVDDLIETFLTFLENKTDYFHVMLNDKDVETLSEKYDGAILKNLLNNNNCGFKAHSREQLLIKSFRKHQINYIMRKQPYIIENEEIKNKYLTSCDELKKIKYMPTTKDMNKEKQENSTKVNSDVHSLNVTQENHISIWNGGKTDKYYWNQALKEINLEMPFNEEIKPNDVNVQITNTNIKIYHCGVLKLEGMFYEEVDKQECVWSIEDKKNIIIYLEKKRENWWPCVIKGDTEIDTKNIESKKNLTDFDEKTQGQIRKFLLEQRMKNEGIPTPEDLRKQNIINNVLSSKGEPFGR | not soluble |
| MSDDDSSHDLPAANLQQLRLPDSASLRPAFSTHRPRILILYGSLRTVSYSRLLAEEARRLLEFFGAEVKVFDPSGLPLPDAAPVSHPKVQELRELSIWSEGQVWVSPERHGAMTGIMKAQIDWIPLSTGSIRPTQGKTLAVMQVSGGSQSFNAVNQMRILGRWMRMITIPNQSSVAKAFQEFDANGRMKPSSYYDRVVDVMEELVKFTLLTRDCSAYLTDRYSERKESAAELEHRVTLKSVHHHHHH | soluble |
| TKNWKWEMNFNIAKNSNKLVELADGVDSYSIYWTSFTTRLYNYAMVGKSLGVITGNTWERDDNGNIIFHELSASQKALYGGEYVPTYNQNTLDELGNFHPDFTGGFNTSISFKNFRLSANIDFSVGGQIVSYTNMWGSSSGILDKTAELNDRGVNVREPVSKGGGIHMTGVDQNGNKVDTYVNAKLYYTTASRVWEEWVYDRTYVKLREVSLSYVFPSQTLKKLNIGLSRASVAINASNPWLIYSACPNVDVSEIGMGYFEGGNAAATRSIGFTVNLAF | not soluble |
| MSLNEVHSIHGHTLLLITKPSLQATALLQHLKQSLAITGKLHNIQRSLDDISSGSIILLDMMEADKKLIHYWQDTLSRKNNNIKILLLNTPEDYPYRDIENWPHINGVFYAMEDQERVVNGLQGVLRGECYFTQKLASYLITHSGNYRYNSTESALLTHREKEILNKLRIGASNNEIARSLFISENTVKTHLYNLFKKIAVKNRTQAVSWANDNLREGHHHHHH | soluble |
| MSLRVLFLRPDNEDNELNEKLMILRKNGIEVLNIPIFKIKCVSYSLPTYDYEALAFTSRNSVICFKDRTLIKNVHKIYAIGEETAELLMKMYNVNPITPERFTSIELAKRILEDKVNSILSIRSRKASEDMRNILNGKIKYDEIYVYDSEIIRDNINEISKILTECEVDAIAFTSSLMAKLIGPFIRGKCNIIIFSIGPMTTETLKRVNNKVKIIESKTHSIKGIIETILVEMKRNGRDEGHHHHHH | soluble |
| MGSDKIHHHHHHMYNPVGVAAIGLGRWAYVMADAYTKSEKLKLVTCYSRTEDKREKFGKRYNCAGDATMEALLAREDVEMVIITVPNDKHAEVIEQCARSGKHIYVEKPISVSLDHAQRIDQVIKETGVKFLCGHSSRRLGALRKMKEMIDTKEIGEVSSIEAVFSNERGLELKKGNWRGEPATAPGGPLTQLGVHQIDNLQFLLGPVARVFNFGKPMYTEVENITVNQTLLEFEDGKQAYLGTNWACPGVFSINVYGTKANLFYQLDFSWWSNSDVTDEHSTLIKREFASMSDDPDNRILRDVKVDFESVDHLRVEVEEVADVIRNGGETEIGAEASLRNLAVVLAAVKSVHEKRPVEIAEIIG | not soluble |
| MGSDKIHHHHHHMNFPELKLSQTERDFNFDFAILEHDLSYFFEKRCLDYALEHINRFNHKIKDNLYNVRPLILKEALISLTCDLASVSFYHYLNMITFVNLRKDILHYLTTTTLTNDDFMPLLESIVNNYFSNLDTLDIPIDGTRLSKQVALVVYYIDNHCDEPLRANTILEELTLDPEYTKRKFRKELGFTINFYIRHAKLQRAKQLLINTHLPIGEIAERINFYNSAEFARQFQKEFDITPSKYRELNQIFYKEE | not soluble |
| MARSLVFIAIALIAVVSAGPGDKDQPKPDHKKGPGGFHHFFPKFFGNVSEEGKKEIGALFKNQDLTLAEVDTKIAALAEKYGVAAAYKEHKAKEATNEAEAKKKTASVISNLSAVSAKLTAIHDNKSLTRKAQREAIAALRKEHEAEVAALDFIGKRSHGFGKHHGRHGKGNGKFFGKRGGNKMERKTAAQ | not soluble |
